What all share (assay): holdup assay
Holding throughout (parameters): key: below the threshold = too weak to quantify, mostly under pKd 3.1 to 4
What all share (settings): plain residues with an end cap or a label only (N-terminal biotin on a linker: ado-ado)

Assay [1] concerns the target AHNAK1, Q09666.
The target of assay [2] is T1, DFNB31_3, Q9P202.
T1 sequence (Q9P202 811-907, limits assumed, looked up): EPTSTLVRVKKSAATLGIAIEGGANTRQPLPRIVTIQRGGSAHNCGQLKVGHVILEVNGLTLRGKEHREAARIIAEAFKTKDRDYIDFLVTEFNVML

For assay [3], the target named is FRMPD2_2, Q68DX3.
Sequence of FRMPD2_2, Q68DX3 (Q68DX3 944-1038): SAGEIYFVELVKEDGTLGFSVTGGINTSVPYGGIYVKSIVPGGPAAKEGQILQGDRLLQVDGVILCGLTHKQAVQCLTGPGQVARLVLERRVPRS
For assay [4], the target named is FRMPD3, Q5JV73.
Sequence of FRMPD3, Q5JV73 (Q5JV73 12-100): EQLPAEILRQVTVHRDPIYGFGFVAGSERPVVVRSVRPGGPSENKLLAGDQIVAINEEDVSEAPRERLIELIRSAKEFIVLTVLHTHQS
Assay [5] addresses GORASP2, Q9H8Y8.
Assay [6] has as its target GRID2IP_1, A4D2P6.
The target of assay [7] is T2, GRIP1_4, Q9Y3R0.
T2 sequence (Q9Y3R0 467-571, limits assumed, looked up): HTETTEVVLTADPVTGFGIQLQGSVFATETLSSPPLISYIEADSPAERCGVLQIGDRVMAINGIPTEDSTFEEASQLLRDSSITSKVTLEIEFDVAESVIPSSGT

For assay [8], the target named is T3, GRIP1_7, Q9Y3R0.
T3 sequence (Q9Y3R0 999-1096, limits assumed, looked up): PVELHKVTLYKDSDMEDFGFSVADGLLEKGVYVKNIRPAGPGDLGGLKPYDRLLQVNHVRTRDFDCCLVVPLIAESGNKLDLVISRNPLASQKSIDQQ

Assay [9] addresses Inadl_5, Q8NI35.
In assay [10] the target is T4, LIN7A, O14910.
T4 sequence (O14910 103-200, limits assumed, looked up): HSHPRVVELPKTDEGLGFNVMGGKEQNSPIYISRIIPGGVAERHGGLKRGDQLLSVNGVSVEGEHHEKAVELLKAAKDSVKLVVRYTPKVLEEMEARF

Assay [11] addresses T5, LIN7C, Q9NUP9.
T5 sequence (Q9NUP9 88-185, limits assumed, looked up): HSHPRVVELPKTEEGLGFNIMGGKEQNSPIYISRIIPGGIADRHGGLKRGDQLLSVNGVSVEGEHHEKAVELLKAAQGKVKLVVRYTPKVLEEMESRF

The target in assay [12] is LNX1_3, Q8TBB1.
Sequence of LNX1_3, Q8TBB1 (Q8TBB1 500-596): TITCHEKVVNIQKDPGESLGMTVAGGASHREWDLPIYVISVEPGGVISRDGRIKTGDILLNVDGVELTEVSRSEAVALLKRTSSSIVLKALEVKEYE
The target of assay [13] is MAGI2_5, Q86UL8.
Sequence of MAGI2_5, Q86UL8 (Q86UL8 915-1017): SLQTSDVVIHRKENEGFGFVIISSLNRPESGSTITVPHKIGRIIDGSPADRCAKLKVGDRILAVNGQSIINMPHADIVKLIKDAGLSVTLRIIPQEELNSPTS
Assay [14] addresses MAST2, Q6P0Q8.
Assay [15] has as its target T6, MPDZ_5, O75970.
T6 sequence (O75970 695-796, limits assumed, looked up): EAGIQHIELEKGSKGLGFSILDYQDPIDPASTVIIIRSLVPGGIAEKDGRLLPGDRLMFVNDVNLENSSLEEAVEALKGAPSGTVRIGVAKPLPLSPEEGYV

Assay [16] deals with T7, NHERF3_3, Q5T2W1.
T7 sequence (Q5T2W1 238-333, limits assumed, looked up): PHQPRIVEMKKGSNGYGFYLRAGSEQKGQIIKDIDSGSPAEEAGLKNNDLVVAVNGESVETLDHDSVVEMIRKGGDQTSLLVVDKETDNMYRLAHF

The target in assay [17] is T8, PDZD2_2, O15018.
T8 sequence (O15018 329-429, limits assumed, looked up): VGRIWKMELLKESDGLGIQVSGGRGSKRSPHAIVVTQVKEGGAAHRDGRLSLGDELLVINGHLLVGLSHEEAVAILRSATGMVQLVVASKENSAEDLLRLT

In assay [18] the target is PICK1, Q9NRD5.
Sequence of PICK1, Q9NRD5 (Q9NRD5 17-115): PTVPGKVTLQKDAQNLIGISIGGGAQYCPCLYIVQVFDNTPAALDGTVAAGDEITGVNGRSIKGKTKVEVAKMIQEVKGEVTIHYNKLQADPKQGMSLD
In assay [19] the target is T9, PTPN13_1, Q12923.
T9 sequence (Q12923 1088-1188, limits assumed, looked up): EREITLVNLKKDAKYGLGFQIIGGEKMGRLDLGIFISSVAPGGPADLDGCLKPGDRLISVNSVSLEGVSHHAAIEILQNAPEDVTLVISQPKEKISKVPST

Assay [20] deals with T10, RAPGEF6, Q8TEU7.
T10 sequence (Q8TEU7 525-625, limits assumed, looked up): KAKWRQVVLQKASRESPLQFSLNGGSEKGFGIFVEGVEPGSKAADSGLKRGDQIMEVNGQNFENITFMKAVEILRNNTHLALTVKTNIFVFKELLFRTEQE

The target in assay [21] is T11, SNTB1, Q13884.
T11 sequence (Q13884 107-205, limits assumed, looked up): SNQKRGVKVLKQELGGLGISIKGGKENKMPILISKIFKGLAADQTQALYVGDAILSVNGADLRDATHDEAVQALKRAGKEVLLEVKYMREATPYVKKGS

Assay [22] concerns the target T12, SNTG1, Q9NSN8.
T12 sequence (Q9NSN8 52-150, limits assumed, looked up): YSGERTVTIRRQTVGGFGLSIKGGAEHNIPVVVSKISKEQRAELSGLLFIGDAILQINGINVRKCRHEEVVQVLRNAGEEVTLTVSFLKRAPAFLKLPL

The target in assay [23] is T13, SYNJ2BP, P57105.
T13 sequence (P57105 8-110, limits assumed, looked up): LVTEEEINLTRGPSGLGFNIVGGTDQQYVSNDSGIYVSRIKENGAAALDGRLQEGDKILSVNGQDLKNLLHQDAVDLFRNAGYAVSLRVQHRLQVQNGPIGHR

Assay [24] concerns the target TJP1_3, Q07157.

Sequence of GRID2IP_1, A4D2P6 (A4D2P6 1-87): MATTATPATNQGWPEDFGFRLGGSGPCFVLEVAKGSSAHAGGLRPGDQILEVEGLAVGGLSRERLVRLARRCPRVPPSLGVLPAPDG
Sequence of MAST2, Q6P0Q8 (Q6P0Q8 1099-1202): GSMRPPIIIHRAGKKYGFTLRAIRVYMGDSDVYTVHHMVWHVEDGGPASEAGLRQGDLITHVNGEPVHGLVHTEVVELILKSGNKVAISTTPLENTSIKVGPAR
Sequence of AHNAK1, Q09666 (Q09666 4-100): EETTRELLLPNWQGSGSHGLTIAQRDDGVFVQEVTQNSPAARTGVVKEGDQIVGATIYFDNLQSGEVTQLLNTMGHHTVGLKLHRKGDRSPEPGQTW
Sequence of TJP1_3, Q07157 (Q07157 416-512): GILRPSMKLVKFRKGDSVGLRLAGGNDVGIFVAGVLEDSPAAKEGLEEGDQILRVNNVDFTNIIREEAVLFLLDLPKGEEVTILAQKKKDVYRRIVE
Sequence of Inadl_5, Q8NI35 (Q8NI35 673-780): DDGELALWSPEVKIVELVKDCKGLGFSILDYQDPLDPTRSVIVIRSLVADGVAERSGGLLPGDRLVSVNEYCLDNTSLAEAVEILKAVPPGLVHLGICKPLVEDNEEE

A word on the pKd: it is the negative decadic logarithm of the Kd, by convention in mol/L. On to QELLEYETTV [XKR7, Q5GH72], for which the pKd result in [1] is “below the threshold”; in assay [2], “below the threshold”; in assay [3], 4.83; in [4], “below the threshold”; in assay [5], 3.8; in [6] it was “below the threshold”. In addition, the pKd entry is “below the threshold” in assay [7]; “below the threshold” in assay [8]; 3.55 in assay [9]; 4.38 in assay [10]; 4.79 in assay [11]; “below the threshold” in assay [12]. Besides, the pKd in assay [13] was 4.89; in assay [14], 5.46; in [15] it was “below the threshold”; in [16] it was “below the threshold”; in assay [17], 5.17; in assay [18], “below the threshold”. The pKd result in [19] was “below the threshold”; in [20], “below the threshold”; in assay [21], 5.07; in [22], 5.14; in assay [23], 4.98; in assay [24], “below the threshold”.
With LRYARPADAL [PPP1R3G, B7ZBB8], the pKd entry in [1], in assay [2], in assay [3], in assay [4], in assay [5] and in [6] was “below the threshold” throughout. For the same molecule, the pKd entry in [7], in assay [8], in [9], in [10], in [11] and in assay [12] was “below the threshold” throughout. In addition, the pKd entry in assay [13], in [14], in [15], in [16], in assay [17] and in assay [18] was “below the threshold” each time. The pKd entry in assay [19], in [20], in [21], in assay [22], in [23] and in [24] was “below the threshold” in each case.
As for REVVMRVTTV [MARCHF9, Q86YJ5], the pKd entry in [1] is “below the threshold”; in [2], 4.31; in assay [3], 4.11; in [4], “below the threshold”; in assay [5], 5.53; in [6], “below the threshold”. Also, the pKd entry is “below the threshold” in assay [7]; “below the threshold” in assay [8]; “below the threshold” in assay [9]; 3.82 in assay [10]; 4.47 in assay [11]; “below the threshold” in assay [12]. Moreover, the pKd in assay [13] was 4.12; in [14], 5.59; in assay [15], “below the threshold”; in assay [16], “below the threshold”; in assay [17], 4.37; in assay [18], “below the threshold”. The pKd result in [19] is “below the threshold”; in assay [20], “below the threshold”; in assay [21] it was 5.37; in assay [22] it was 4.89; in assay [23] it was 4.82; in assay [24] it was “below the threshold”.
Regarding SKSLERATQL [COMMD3, Q9UBI1], the pKd result was “below the threshold” in assay [1]; 4.25 in assay [2]; 3.65 in [3]; “below the threshold” in assay [4]; 3.84 in [5]; “below the threshold” in [6]. Further, the pKd entry in [7] is “below the threshold”; in assay [8], 3.51; in assay [9], “below the threshold”; in assay [10], “below the threshold”; in [11] it was “below the threshold”; in assay [12], “below the threshold”. In addition, the pKd is 4.49 in assay [13]; 5.7 in [14]; “below the threshold” in assay [15]; 3.8 in assay [16]; 3.95 in assay [17]; “below the threshold” in assay [18]. Moreover, the pKd result in assay [19] is “below the threshold”; in assay [20], 3.85; in [21] it was 4.24; in assay [22] it was 3.51; in assay [23] it was 3.73; in [24], 3.51.

The values above are taken from article PMC9482650, “Quantitative fragmentomics allow affinity mapping of interactomes” (Nature Communications, 2022).
